Measured values published in patent US6342219.

Target: VEGF:Flk-1 complex (VEGF associated with sFlk-1) (human; mouse) (UniProt P15692)
Experiment: capture ELISA; biotinylated sFlk-1 complexed with VEGF titrated onto antibody-coated wells; concentration giving 50% maximal binding; * extrapolated value

Sequence of VEGF:Flk-1 complex (VEGF associated with sFlk-1) (human; mouse) (P15692 other isoform, or with tags, fused parts or gaps limits assumed, chain 1 of 2): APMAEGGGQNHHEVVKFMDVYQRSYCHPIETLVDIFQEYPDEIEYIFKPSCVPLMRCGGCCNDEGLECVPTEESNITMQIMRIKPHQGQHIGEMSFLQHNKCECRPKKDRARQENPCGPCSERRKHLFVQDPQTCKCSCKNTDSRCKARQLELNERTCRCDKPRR
Sequence of VEGF:Flk-1 complex (VEGF associated with sFlk-1) (human; mouse) (P35918 20-762 limits assumed, chain 2 of 2, further chain): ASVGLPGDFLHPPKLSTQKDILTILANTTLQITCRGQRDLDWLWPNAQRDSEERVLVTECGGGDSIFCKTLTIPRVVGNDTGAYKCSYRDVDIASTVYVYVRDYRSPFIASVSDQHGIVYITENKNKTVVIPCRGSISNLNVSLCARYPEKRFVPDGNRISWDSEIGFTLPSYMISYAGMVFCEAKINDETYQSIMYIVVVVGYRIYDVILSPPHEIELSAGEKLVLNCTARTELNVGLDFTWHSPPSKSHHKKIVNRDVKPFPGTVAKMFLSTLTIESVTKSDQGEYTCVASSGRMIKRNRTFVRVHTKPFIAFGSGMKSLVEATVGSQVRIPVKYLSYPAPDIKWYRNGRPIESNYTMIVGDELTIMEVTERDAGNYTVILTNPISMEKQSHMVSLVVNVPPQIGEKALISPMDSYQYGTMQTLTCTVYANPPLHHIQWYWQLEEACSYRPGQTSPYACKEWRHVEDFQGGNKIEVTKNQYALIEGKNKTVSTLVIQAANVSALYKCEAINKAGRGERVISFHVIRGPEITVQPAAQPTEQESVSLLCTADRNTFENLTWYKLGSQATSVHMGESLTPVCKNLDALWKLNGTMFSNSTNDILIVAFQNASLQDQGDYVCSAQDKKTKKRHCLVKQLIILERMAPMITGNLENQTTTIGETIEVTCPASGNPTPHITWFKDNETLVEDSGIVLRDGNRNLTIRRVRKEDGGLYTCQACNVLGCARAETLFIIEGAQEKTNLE
Sequence of A4.6.1 (mouse anti-human VEGF monoclonal antibody from Genentech) (VH): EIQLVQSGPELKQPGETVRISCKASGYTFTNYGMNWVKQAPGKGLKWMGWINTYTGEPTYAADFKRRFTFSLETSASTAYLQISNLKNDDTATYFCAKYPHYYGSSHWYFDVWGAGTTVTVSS
Sequence of A4.6.1 (mouse anti-human VEGF monoclonal antibody from Genentech) (VL): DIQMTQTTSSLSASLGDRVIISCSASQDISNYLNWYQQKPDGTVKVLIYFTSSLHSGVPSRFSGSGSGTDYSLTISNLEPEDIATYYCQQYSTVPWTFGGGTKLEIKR

How did the EC50 turn out when “A4.6.1 (mouse anti-human VEGF monoclonal antibody from Genentech)” was run?
Its EC50 is 0.5 µM.
